From US20040253242A1

Biological target: cMpl receptor (human (cloned from Tf-1 cells, a human cell line)) (UniProt P40238)
Assay: cell-based or functional assay

Relative Fold Luciferase activity (c-Fos promoter), CMpl-R transfected NIH3T3 cells; +TPO: 2.32 fold
Substance: TPO (from UniProt P40225 22-353) (ligand)
